Reference: patent publication US20200317768A1 (published 2020)
Residue numbers refer to the chain shown, from its start.

T1: cynomolgus monkey FcγRIIa2 extracellular domain, His-tagged (cynomolgus monkey)
T1 construct: also called cyno FcγRIIa2; FcgRIIa2; not shown: C-terminal His-tag
T1 chain: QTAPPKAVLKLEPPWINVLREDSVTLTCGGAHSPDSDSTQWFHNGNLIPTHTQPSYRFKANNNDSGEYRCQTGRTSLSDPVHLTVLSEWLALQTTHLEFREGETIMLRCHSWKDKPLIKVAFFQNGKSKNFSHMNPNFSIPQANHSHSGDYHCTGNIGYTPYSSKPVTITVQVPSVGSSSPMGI

T2: human FcγRIIaR extracellular domain, His-tagged (human, UniProt P12318 34-217)
T2 construct: also called human FcγRIIa (type R); FcgRIIaR; not shown: C-terminal His-tag
T2 chain: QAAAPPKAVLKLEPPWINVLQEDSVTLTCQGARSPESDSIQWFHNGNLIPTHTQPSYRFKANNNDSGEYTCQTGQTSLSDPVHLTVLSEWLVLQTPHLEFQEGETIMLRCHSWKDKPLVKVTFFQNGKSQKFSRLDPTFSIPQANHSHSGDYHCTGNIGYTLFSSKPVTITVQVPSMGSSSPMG

T3: cynomolgus monkey FcγRIIa3 extracellular domain, His-tagged (cynomolgus monkey)
T3 construct: also called cyno FcγRIIa3; FcgRIIa3; not shown: C-terminal His-tag
T3 chain: T1 chain with K127I, N130K, H133P, Q142R

T4: cynomolgus monkey FcγRIIa1 extracellular domain, His-tagged (cynomolgus monkey)
T4 construct: also called cyno FcγRIIa1; FcgRIIa1; not shown: C-terminal His-tag
T4 chain: T1 chain with T95P, A121T, K127I, S128A, N130K, N135D, Q142R

T5: human FcγRIIb extracellular domain, His-tagged (human, UniProt P31994 43-217)
T5 construct: also called FcgRIIb (human); not shown: C-terminal His-tag
T5 sequence: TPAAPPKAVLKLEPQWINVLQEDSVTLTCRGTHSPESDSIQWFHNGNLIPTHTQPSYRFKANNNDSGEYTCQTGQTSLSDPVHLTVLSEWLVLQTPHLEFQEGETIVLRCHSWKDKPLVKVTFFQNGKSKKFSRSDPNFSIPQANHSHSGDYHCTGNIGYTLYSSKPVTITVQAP

T6: cynomolgus monkey FcγRIIb extracellular domain, His-tagged (cynomolgus monkey)
T6 construct: also called cyno FcγRIIb; cynoFcγRIIb; not shown: C-terminal His-tag
T6 chain: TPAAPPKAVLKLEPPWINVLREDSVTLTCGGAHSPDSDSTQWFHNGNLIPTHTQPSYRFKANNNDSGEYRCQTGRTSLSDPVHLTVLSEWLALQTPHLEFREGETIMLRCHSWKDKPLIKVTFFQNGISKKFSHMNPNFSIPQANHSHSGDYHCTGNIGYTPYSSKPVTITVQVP

T7: human FcγRIIaH extracellular domain, His-tagged (human, UniProt P12318 34-217)
T7 construct: also called human FcγRIIa (type H); FcgRIIaH; not shown: C-terminal His-tag
T7 sequence: T2 chain with R134H

T8: cynomolgus monkey FcγRIIIaS extracellular domain, His-tagged (cynomolgus monkey, UniProt Q8SPW2 21-206 at identity 1.00))
T8 construct: also called cyno FcγRIIIaS; FcgRIIIaS; not shown: C-terminal His-tag
T8 chain: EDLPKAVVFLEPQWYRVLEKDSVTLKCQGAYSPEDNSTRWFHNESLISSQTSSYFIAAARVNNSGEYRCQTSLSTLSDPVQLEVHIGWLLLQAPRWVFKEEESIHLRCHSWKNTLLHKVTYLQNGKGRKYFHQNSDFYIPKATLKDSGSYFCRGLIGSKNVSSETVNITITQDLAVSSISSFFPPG

B1: M103205H795-MY449 / M103202L889-SK1 (antibody, human IgG1, kappa)
heavy: QVTLKESGPVLVKPTETLTLTCTVSGIDLSHDDISWVRQAPGKGLEWVGIISYAGSTYYASWAKGRLTISKDTSKNQVVLTMTNMDPVDTATYYCARGVPAYSHGGDLWGQGTLVTVSSASTKGPSVFPLAPSSKSTSGGTAALGCLVKDYFPEPVTVSWNSGALTSGVHTFPAVLQSSGLYSLSSVVTVPSSSLGTQTYICNVNHKPSNTKVDKKVEPKSCDKTHTCPPCPALELLTGPSVFLFPPKPKDTLMISRTPEVTCVVVDVSDEDPEVKFNWYVDGVEVHNAKTKPREEQYNSTYRVVSVLTVLHQDWLNGKEYKCKVSNKALPKPIEKTISKAKGQPREPQVYTLPPSREEMTKNQVSLTCLVKGFYPSDIAVEWESNGQPENNYKTTPPVLDSDGSFFLYSKLTVDKSRWQQGNVFSCSVMHEALHNHYTQKSLSLSP
light: DIVMTQSPATLSLSPGERATLSCTSSQSVYHANWLSWFQQKPGQPPKLLIYWASTLAYGVPSRFSGSGSGTDFTLTISSLQPEDAATYYCAGGYGGGRYAFGQGTKVEIKRTVAAPSVFIFPPSDEQLKSGTASVVCLLNNFYPREAKVQWKVDNALQSGNSQESVTEQDSKDSTYSLSSTLTLSKADYEKHKVYACEVTHQGLSSPVTKSFNRGEC
B2: M103205H795-MY452 / M103202L889-SK1 (antibody, human IgG1, kappa)
heavy: B1 heavy with L234Q
light: B1 light
notes: substitution positions are EU numbers
B3: M103205H795-MY456 / M103202L889-SK1 (antibody, human IgG1, kappa)
heavy: B1 heavy with L234V
light: B1 light
notes: as for B2
B4: M103205H795-MY450 / M103202L889-SK1 (antibody, human IgG1, kappa)
heavy: B1 heavy with L234M
light: B1 light
notes: as for B2
B5: M103205H795-MY455 / M103202L889-SK1 (antibody, human IgG1, kappa)
heavy: B1 heavy with L234T
light: B1 light
notes: as for B2
B6: M103205H795-MY453 / M103202L889-SK1 (antibody, human IgG1, kappa)
heavy: B1 heavy with L234R
light: B1 light
notes: as for B2
B7: M103205H795-MY457 / M103202L889-SK1 (antibody, human IgG1, kappa)
heavy: B1 heavy with L234W
light: B1 light
notes: as for B2
B8: M103205H795-MY451 / M103202L889-SK1 (antibody, human IgG1, kappa)
heavy: B1 heavy with L234N
light: B1 light
notes: as for B2
B9: M103205H795-MY454 / M103202L889-SK1 (antibody, human IgG1, kappa)
heavy: B1 heavy with L234S
light: B1 light
notes: as for B2

Target: T1, cynomolgus monkey FcγRIIa2 …
Assay: SPR (BIACORE), 25 C, antibody captured, FcgR as analyte; KD of SG1 divided by KD of variant;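 also: relative to parent M103205H795-SG1 carrying the SG1 human heavy chain constant region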
Procedure: (§1) The kinetic analysis of interactions between these antibodies and FcγR was carried out using BIACORE® T200 or BIACORE® 4000 (GE Healthcare). HBS-EP+ (GE Healthcare) was used as the running buffer, and the measurement temperature was set to 25° C. A chip produced by immobilizing Protein A. Protein A/G or mouse anti-human IgG kappa light chain (BD Biosciences) onto a Series S Sensor Chip CM4 or CM5 (GE Healthcare) by the amine-coupling method was used. […] After the measurement, the antibody captured on the chip was washed off by allowing reaction with 10 mM glycine-HCl, pH1.5 and 25 mM NaOH so that the chip was regenerated and used repeatedly. The sensorgrams obtained as measurement results were analyzed by the 1:1 Langmuir binding model using the BIACORE® Evaluation Software to calculate the binding rate constant ka (L/mol/s) and dissociation rate constant kd (l/s), and the dissociation constant KD (mol/L) was calculated from these values. […] Regarding such interactions, KD values were calculated using the following 1:1 binding model described in BIACORE® T100 Software Handbook BR1006-48 Edition AE.

KD fold (SG1 = 1)	Binder
5.4 fold	B1
1.6 fold	B2
3 fold	B3
4.6 fold	B4
1.8 fold	B5
0.5 fold	B6
6.1 fold	B7
1.2 fold	B8
1.6 fold	B9

These binders were tested against T9, human FcγRIIIaV extracellular domain, His-tagged (human, UniProt P08637 17-208) in the same assay as above.
T9 construct: also called human FcγRIIIa (V158); FcgRIIIaV; not shown: C-terminal His-tag
Procedure: as §1

T9 sequence (P08637 17-208 F176V): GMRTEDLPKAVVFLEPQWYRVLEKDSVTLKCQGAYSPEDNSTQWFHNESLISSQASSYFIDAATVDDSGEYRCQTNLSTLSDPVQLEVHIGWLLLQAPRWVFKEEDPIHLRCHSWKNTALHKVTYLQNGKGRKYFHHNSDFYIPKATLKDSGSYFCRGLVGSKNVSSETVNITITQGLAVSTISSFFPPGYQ

KD fold (SG1 = 1)	Binder
0.3 fold	B1
0.1 fold	B2
0.2 fold	B3
0.3 fold	B4
0.1 fold	B5
0.1 fold	B6
0.2 fold	B7
0.1 fold	B8
0.1 fold	B9

Target: T2, human FcγRIIaR extracellular domain, …
Assay: as above
Procedure: as §1

KD fold (SG1 = 1)	Binder
14.9 fold	B1
1.8 fold	B2
3.8 fold	B3
9.2 fold	B4
2.4 fold	B5
0.7 fold	B6
15.1 fold	B7
1.7 fold	B8
1.4 fold	B9

Target: T3, cynomolgus monkey FcγRIIa3 …
Assay: as above
Procedure: as §1

KD fold (SG1 = 1)	Binder
11.3 fold	B1
1.6 fold	B2
5 fold	B3
7.7 fold	B4
3.1 fold	B5
0.8 fold	B6
14.2 fold	B7
1.5 fold	B8
1.2 fold	B9

Target: T4, cynomolgus monkey FcγRIIa1 …
Assay: as above
Procedure: as §1

KD fold (SG1 = 1)	Binder
3.7 fold	B1
0.9 fold	B2
1.7 fold	B3
2.3 fold	B4
1 fold	B5
0.5 fold	B6
4 fold	B7
0.9 fold	B8
0.8 fold	B9

What follows are binders tested against T5, human FcγRIIb extracellular domain, … in the same assay as above.
Procedure: as §1

KD fold (SG1 = 1)	Binder
15.9 fold	B1
1.6 fold	B2
4.2 fold	B3
9.3 fold	B4
2.1 fold	B5
0.7 fold	B6
13.9 fold	B7
1.5 fold	B8
1.5 fold	B9

Target: T6, cynomolgus monkey FcγRIIb extracellular …
Assay: as above
Procedure: as §1

KD fold (SG1 = 1)	Binder
7.8 fold	B1
2 fold	B2
3.5 fold	B3
6.4 fold	B4
2 fold	B5
0.3 fold	B6
9 fold	B7
1.8 fold	B8
1.3 fold	B9

The binders below were run against T7, human FcγRIIaH extracellular domain, … in the same assay as above.
Procedure: as §1

KD fold (SG1 = 1)	Binder
7 fold	B1
1.9 fold	B2
4.1 fold	B3
5.8 fold	B4
2.2 fold	B5
0.9 fold	B6
5.3 fold	B7
1.7 fold	B8
1.7 fold	B9

Target: T8, cynomolgus monkey FcγRIIIaS …
Assay: as above
Procedure: as §1

KD fold (SG1 = 1)	Binder
0.4 fold	B1
0.1 fold	B2
0.2 fold	B3
0.3 fold	B4
0.1 fold	B5
0.1 fold	B6
0.3 fold	B7
0.1 fold	B8
0.1 fold	B9
